Measured values published in patent publication US20180016342A1 (published 2018).
Substitutions are numbered along the chain they refer to.

T1: human soluble IL6-R (human, UniProt P08887 20-358)
T1 chain: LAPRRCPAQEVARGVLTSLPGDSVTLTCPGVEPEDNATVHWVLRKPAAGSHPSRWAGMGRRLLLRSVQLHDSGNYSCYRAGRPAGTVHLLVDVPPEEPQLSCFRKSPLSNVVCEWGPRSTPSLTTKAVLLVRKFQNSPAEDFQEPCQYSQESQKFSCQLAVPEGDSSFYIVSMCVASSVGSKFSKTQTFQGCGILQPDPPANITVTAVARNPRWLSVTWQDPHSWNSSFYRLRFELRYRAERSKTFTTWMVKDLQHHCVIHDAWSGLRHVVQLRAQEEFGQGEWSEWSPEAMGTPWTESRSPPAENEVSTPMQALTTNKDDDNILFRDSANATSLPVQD

T2: soluble IL6-R in cynomolgus plasma (cynomolgus monkey, UniProt A0A2K5WN54 60-386)
T2 chain: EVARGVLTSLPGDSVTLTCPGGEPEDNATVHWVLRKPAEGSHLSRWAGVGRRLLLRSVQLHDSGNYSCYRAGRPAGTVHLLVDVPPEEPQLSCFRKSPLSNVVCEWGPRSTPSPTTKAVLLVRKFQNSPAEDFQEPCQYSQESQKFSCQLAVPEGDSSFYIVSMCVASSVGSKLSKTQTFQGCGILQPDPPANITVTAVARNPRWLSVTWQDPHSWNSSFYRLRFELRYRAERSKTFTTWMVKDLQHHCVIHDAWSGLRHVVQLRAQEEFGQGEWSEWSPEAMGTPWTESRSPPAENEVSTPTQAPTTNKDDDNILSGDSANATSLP

B1: IL6R84 (VHH)
VHH: EVQLVESGGGLVQPGGSLRLSCAASGFTFDDYGMSWVRQAPGKGLEWVSAISWNGNNTYYTESMKGRFTISRDNAKNTLYLQMNSLRPEDTAVYYCVKGSTAIVGVPPTYPDEYDYWGQGTLVTVSS
B2: IL6R13 (VHH)
VHH: B1 VHH with K43R, G44A, L45T, L79V, R87K, L122Q
B3: IL6R82 (VHH)
VHH: B1 VHH with L79V
B4: IL6R83 (VHH)
VHH: B1 VHH with K43R, G44A, L45T
B5: IL6R81 (VHH)
VHH: B1 VHH with K43R, G44A, L45T, L79V
B6: IL6R04 (VHH)
VHH: EVQLVESGGGLVQAGGSLRLSCAASGFTFDDYDIGWFRQAPGKEREGVSGISSSDGNTYYADSVKGRFTISSDNAKNTVYLQMNSLKPEDTAVYYCAAEPPDSSWYLDGSPEFFKYWGQGTQVTVSS
B7: IL6R74 (VHH)
VHH: B6 VHH with A14P, E44G, V79L, K87R, Q122L
B8: IL6R71 (VHH)
VHH: B6 VHH with A14P, E44G, K87R, Q122L
B9: IL6R73 (VHH)
VHH: B6 VHH with A14P, E44G, S72R, K87R, Q122L
B10: IL6R72 (VHH)
VHH: B6 VHH with A14P, D30S, E44G, K87R, Q122L
B11: IL6R03 (VHH)
VHH: EVQLVESGGGLVQAGGSLRLSCAASGSIFKVNAMGWYRQAPGKQRELVAGIISGGSTNYADSVKGRLTISRDNAKNTVYLQMNSLKPEDTAVYYCSFVTTNSDYDLGRDYWGQGTQVTVSS
B12: IL6R64 (VHH)
VHH: B11 VHH with A14P, Q44G, K86R, S96A, Q116L
B13: IL6R62 (VHH)
VHH: B11 VHH with A14P, Q44G, L67F, K86R, Q116L
B14: IL6R61 (VHH)
VHH: B11 VHH with A14P, Q44G, K86R, Q116L
B15: IL6R63 (VHH)
VHH: B11 VHH with A14P, Q44G, V78L, K86R, Q116L
B16: IL6R75 (VHH)
VHH: B6 VHH with A14P, D30S, E44G, S72R, V79L, K87R, Q122L
B17: IL6R88 (VHH)
VHH: B1 VHH with L45T
B18: IL6R65 (VHH)
VHH: B11 VHH with A14P, Q44G, L67F, V78L, K86R, S96A, Q116L

Each molecule was assayed against membrane-bound IL6R on human cells (U266, XG-1, TF-1) (human) (UniProt P08887) (assay: cell-based or functional assay).

IC50 (+1% HSA), TF-1 proliferation assay, 200 pg/ml IL-6 | IC50 (nM), XG-1 cell based assay | IC50 (w/o HSA), TF-1 proliferation assay, 200 pg/ml IL-6 | Molecule
0.088 | 0.064 nM | 0.042 | MAb BR-6 (antibody)
 | 0.272 nM |  | MAb BN-12 (antibody)

Target: T1, human soluble IL6-R
Assay: Alphascreen inhibition of IL6/IL6-R interaction

EC50 | Molecule
0.465 nM | B1
0.0644 nM | B2
0.476 nM | B3
0.0779 nM | B4
0.0747 nM | B5

Target: T1, human soluble IL6-R
Assay: Alphascreen inhibition of IL6/IL6-R interaction
Remark: another data set of the same source

EC50 | Molecule
0.18 nM | B6
0.133 nM | B7
0.153 nM | B8
0.0916 nM | B9
0.16 nM | B10

Target: T1, human soluble IL6-R
Assay: Alphascreen inhibition of IL6/IL6-R interaction
Remark: another data set of the same source

EC50 | Molecule
0.187 nM | B11
0.108 nM | B12
0.28 nM | B13
0.336 nM | B14
0.65 nM | B15

Target: T1, human soluble IL6-R
Assay: Alphascreen inhibition of IL6/IL6-R interaction
Remark: another data set of the same source

EC50 | Molecule
0.0568 nM | B6
0.0432 nM | B16
0.0727 nM | B17
0.0505 nM | B2
0.105 nM | B11

Target: T1, human soluble IL6-R
Assay: Alphascreen inhibition of IL6/IL6-R interaction; printed LOGEC50 -9.833

EC50 | Molecule
0.105 nM | B18

Target: T2, soluble IL6-R in cynomolgus plasma
Assay: ELISA inhibition of IL-6 binding to plasma sIL6R; cyno plasma, 50 ng/mL IL-6

EC50 | Molecule
36.9 nM | B6
23.3 nM | B17
11.7 nM | B2
5.88 nM | B11
4.91 nM | B18
